# In patent US20230365684A1 (Janssen / Centocor, published 2023):
# Substitutions are numbered along the chain they refer to. Where two headings read alike, the source gives them in different places.
# B1: C33B806.006 (antibody, V domains shown)
# VH: QLQLQESGPGLVKPSETLSLTCTVSGGSISSSSYYWGWIRQPPGKGLDWIGSINYSGSTYYNPSLKSRVTISVDTSKIQFSLKLRSVTAADTAVYYCARLDGYESPFDYWGQGTLVTVSS
# VL: DIQMTQSPSSVSASVGDRVTITCRASQGISSWLAWYQQKPGKAPKLLIYAASSLQSGVPSRFSGSGSGTDFTLTISSLQPEDFATYYCQQANSFPFTFGPGTKVDIK
# B2: C33B836.006 (antibody, V domains shown)
# VH: QVQLVQSGSELRKPGASVKVSCKASGYTFTNYAMNWVRQAPGQGLEWMGWINTNTGNPTYAQGFTGRFVFSLDTSVSSAYLQISSLKAEDTAMYYCATDRDRGTDYWGQGTLVTVSS
# VL: QSALTQPASVSGSPGQSITISCTGTSSDVGDYNYVSWYQQHPGKVPKLMIYDVSNRPSGVSNRFSGSMSGNTASLTISGLQAEDEADYYCSSYSSSSALEVFGGGTKLTVL
# notes: also called sC33B836.006
# B3: C33B1495 (antibody, V domains shown)
# VH: EVQLVESGGGLVQPGGSLRLSCTASGFTFSSYWMSWVRQAPGKGLDWVANIKRDGSEKHYVDSVKGRFTISRDNAKNSLYLQMNSLRAEDSAVYYCTRDYGYFDYWGQGTLVTVSS
# VL: DIQLTQSPSFLSASVGDRVTITCRASQGISSYLAWYQQKPGKAPKVLIYAASTLQSGVPSRFSGSGSGTEFTLTISSLQPEDFATYFCQQLNSYPVTFGGGTKVEIK
# notes: also called sCD33B1495
# B4: C33B1780 (llama vHH on mono-Fc backbone) (Fc fusion)
# chain: EVQLVESGGGLVQPGGSLRLSCAVFGFSLSDYAIGWFRQAPGKEREKVSCISESDGRTYLSDSVKSRFTISRDNGKNTVYLQMNNLKPDDTGVYYCATVDQAISESSYHCEKGFGSWGQGTQVTVSS
# notes: not shown: mono-Fc backbone
# B5: C33B1785 (llama vHH on mono-Fc backbone) (Fc fusion)
# chain: B4 chain with E1Q, L11S
# notes: not shown: mono-Fc backbone
# B6: C33B1478 (antibody, V domains shown)
# VH: EVQLVESGGGLVQPGGSLKVSCEASGFTFSVSAIHWVRQASGKGLEWIGRIRSKGNSYATAYDVSVKGRFTISRDDSKNTAYLQMDSLKTEDTAVYYCTRHNDKWNYYGLDVWGQGTTVTVSS
# VL: DIVMTQSPLSLPVTPGEPASISCKSSQSLLFSNGYKFLDWYLQRPGQSPQLLIYLGSYRASGVPDRFSGSGSGTDFTLKISRVEAEDVGLYYCMQALQTPPTFGGGTKVEIK
# modifications: In the FIG. 3 assay the antibody carried Alexa Fluor 647 (p-1610); the site is not given and the letters do not carry it.
# notes: also called sCD33B1478
# B7: C33B1484 (antibody, V domains shown)
# VH: B6 VH with S32F
# VL: B6 VL with G105Q
# notes: also called sCD33B1484
# B8: C33B1522 (antibody, V domains shown)
# VH: QVQLQESGPGLVKPSETLSLTCTVSGGSISSYYWGWIRQPPGKGLEWIGYIYYSGSTNYNPSLKSRVTISVDTSKNQFSLKLSSVTAADTAVYYCARMWEILGFDPWGQGTLVTVS
# VL: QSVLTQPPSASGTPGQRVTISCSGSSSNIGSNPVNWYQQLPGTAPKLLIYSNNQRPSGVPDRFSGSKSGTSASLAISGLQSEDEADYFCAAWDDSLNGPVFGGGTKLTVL
# Tests used:
# [1] = target: T1, human CD33 on cells (MOLM-13, Kasumi-1, OCI-AML-3, Kasumi-3) (human, UniProt P20138 18-364); test: flow cytometry on MOLM-13 cells, 4 °C, serial dilutions of the antibody
# T1 construct: whole, on cells; also called CD33 expressing cells; CD33+ cell lines
# Procedure: (§1) Cells were harvested, washed once with PBS and then stained with the fixable viability dye at room temperature for 30 min. Following incubation, cells were washed twice with FACS buffer (PBS+2% FBS). Cells were then used for binding assay with test antibodies. 100,000 cells were stained with the test antibodies in a 100 ul staining volume. Antibodies for staining were diluted in FACS buffer and incubated with the cells for 40 mins on ice, followed by washing 2X with FACS buffer. Test antibodies were then detected using the PE conjugated Goat F(ab′)2 Anti-Human IgG-Fc (ab98596; Abcam) for 40 minutes on ice. Following washing, data was acquired on the Novocyte flow cytometer (ACEA). Cells were gated on FSC/SSC, followed by live cell gating and doublet discrimination. Data was analyzed using Flow Jo (BD).
# (§2) Median fluorescence intensity values were used to plot a 4-parameter non-linear regression analysis curve after subtracting the MFI of the secondary only sample.
# (§3) The binding EC₅₀ values of CD33 antibodies to high (MOLM-13), medium (Kasumi-1) and low (OCI-AML-3) cell lines were assayed. Binding was carried out at 4° C. with serial dilutions of the antibody.
# [2] = target: T1, human CD33 on cells (MOLM-13, Kasumi-1, …); test: flow cytometry on Kasumi-1 cells, 4 °C, serial dilutions of the antibody
# Procedure: as §1, §2, §3
# [3] = target: T1, human CD33 on cells (MOLM-13, Kasumi-1, …); test: flow cytometry on OCI-AML-3 cells, 4 °C, serial dilutions of the antibody
# Procedure: as §1, §2, §3
# [4] = target: T1, human CD33 on cells (MOLM-13, Kasumi-1, …); test: flow cytometry on OCI-AML-3 cells, 4 °C, detection with PE goat F(ab')2 anti-human IgG-Fc [contd]
# [5] = target: T1, human CD33 on cells (MOLM-13, Kasumi-1, …); test: flow cytometry on MOLM-13 cells, 4 °C, detection with PE goat F(ab')2 anti-human IgG-Fc
# [6] = target: T1, human CD33 on cells (MOLM-13, Kasumi-1, …); test: as above; remark: listed apart in the source
# [7] = target: T2, human CD33 (full length ECD), recombinant (human, UniProt P20138 18-259); test: SPR (Biacore 8K), vHH-mono-Fc captured by anti-human Fc, antigen in solution
# T2 construct: extracellular domain; Tag or HSA fusion partner unknown; also called hu CD33 (FL ECD); hCD33-FL ECD
# Procedure: (§4) The binding affinity of anti-CD33 antibodies and Llama vHHs to the recombinant human CD33 (FL ECD or IgC2 domain) was determined by surface plasmon resonance (SPR) using Biacore 8K instrument. […] The association and dissociation were monitored for 2 and 30 minutes, respectively, using a flow rate of 50 μL/min. Raw binding data was referenced by subtracting the analyte binding signals from blanks and analyzed using a 1:1 Langmuir binding model using the Biacore software to obtain the kinetics which were used to calculate the binding affinity.
# (§5) The anti-CD33 Llama vHHs on a mono-Fc backbone were captured using an anti-human Fc antibody and the antigens were injected in solution.
# [8] = target: T3, human CD33 IgC2 domain, recombinant (human, UniProt P20138 136-259); test: as above
# T3 construct: domain: IgC2; also called hu CD33 (IgC2); hCD33-IgC2
# Procedure: as §4, §5
# [9] = target: T3, human CD33 IgC2 domain, recombinant; test: SPR, Biacore 8K, 25 °C, vHH-mono-Fc captured by anti-Fc antibody, CD33-hu-domain injected as analyte, 1:1 binding model
# Procedure: as §4, §5
# [10] = target: T2, human CD33 (full length ECD), …; test: SPR, Biacore 8K, 25 °C, vHH-mono-Fc captured by anti-Fc antibody, CD33-hu-FL injected as analyte, 1:1 binding model [contd]
# Procedure: as §4, §5
# [11] = target: T2, human CD33 (full length ECD), …; test: as above; remark: listed apart in the source
# Procedure: as §4, §5
# [12] = target: T3, human CD33 IgC2 domain, recombinant; test: SPR, Biacore 8K, 25 °C, vHH-mono-Fc captured by anti-Fc antibody, CD33-hu-domain injected as analyte, 1:1 binding model [contd]
# Procedure: as §4, §5
# [13] = target: T2, human CD33 (full length ECD), …; test: SPR (Biacore 8K), antibody captured by anti-human Fc, antigen in solution
# Procedure: (§6) Affinities (KD) for the interaction of anti-CD33 antibodies human CD33 (full length ECD and IgC2 domain) were obtained by SPR. The anti-CD33 antibodies were captured using an anti-human Fc antibody and the antigens were injected in solution.
# as §4
# [14] = target: T3, human CD33 IgC2 domain, recombinant; test: as above
# Procedure: as §6, §4
# T3 sequence (P20138 136-259 limits assumed): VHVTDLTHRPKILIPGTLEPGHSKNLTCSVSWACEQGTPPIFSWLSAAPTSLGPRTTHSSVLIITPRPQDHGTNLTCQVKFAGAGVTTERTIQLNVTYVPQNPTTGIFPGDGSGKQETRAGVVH
# T1 sequence (P20138 18-364): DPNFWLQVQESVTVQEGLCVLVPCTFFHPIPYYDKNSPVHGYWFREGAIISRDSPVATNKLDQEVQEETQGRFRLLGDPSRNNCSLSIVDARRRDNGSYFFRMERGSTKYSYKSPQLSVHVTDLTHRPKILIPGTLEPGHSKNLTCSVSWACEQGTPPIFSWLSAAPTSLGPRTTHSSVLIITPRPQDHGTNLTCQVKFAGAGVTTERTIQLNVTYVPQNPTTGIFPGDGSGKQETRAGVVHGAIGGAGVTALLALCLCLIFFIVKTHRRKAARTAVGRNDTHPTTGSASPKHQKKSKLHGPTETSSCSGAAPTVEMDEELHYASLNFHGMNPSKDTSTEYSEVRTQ
# T2 sequence (P20138 18-259): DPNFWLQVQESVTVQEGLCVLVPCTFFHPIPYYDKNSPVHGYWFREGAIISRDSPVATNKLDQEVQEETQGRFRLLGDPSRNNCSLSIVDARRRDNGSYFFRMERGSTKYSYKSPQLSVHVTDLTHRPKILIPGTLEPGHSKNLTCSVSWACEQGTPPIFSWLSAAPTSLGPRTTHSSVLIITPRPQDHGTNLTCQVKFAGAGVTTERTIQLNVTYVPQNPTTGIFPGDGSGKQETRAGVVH
binder,measurement,setting,value
B1,EC50,[1],35.6 nM
same,EC50,[2],0.13 nM
same,EC50,[3],15.3 nM
same,EC50 (read off the curve),[4],~2 µg/mL
B2,EC50,[1],0.5 nM
same,EC50,[2],17.1 nM
same,EC50,[3],0.46 nM
same,EC50 (read off the curve),[5],~0.08 µg/mL
same,EC50 (read off the curve),[4],~0.08 µg/mL
B3,binding result,[6],binds
B4,Kd,[7],0.847 nM
same,Kd,[8],3.38 nM
same,kon,[9],962000 M⁻¹ s⁻¹
same,koff,[10],0.00117 s⁻¹
same,kon,[10],1.38e+06 M⁻¹ s⁻¹
B5,Kd,[7],0.661 nM
same,Kd,[8],3.31 nM
same,koff,[11],0.000928 s⁻¹
same,kon,[11],1.4e+06 M⁻¹ s⁻¹
same,koff,[12],0.0034 s⁻¹
same,kon,[12],1.03e+06 M⁻¹ s⁻¹
B6,binding result,[6],binds
B7,binding result,[6],binds
B8,Kd,[13],> 10 nM
same,binding result,[14],no binding (tested: 40 nM-1.6 nM CD33 antigen)
same,EC50,[1],32.7 nM
same,EC50,[2],73.4 nM
